Test results as given in PMC2164975.

Target: GST-QM fusion protein, full-length QM (human) (UniProt P27635)
Experiment: pull-down

In the case of “normal full-length PS1, in vitro translated and radiolabeled with [35S]methionine (from UniProt P49768 1-467) (natural protein)”, the ratio between the input and the pulled-down amounts is reported as 95%.
